From PMC3017872

Key:
[1] = biological target: recombinant IgE receptor FcεRI alpha (sFcεRIα) (UniProt P12319); experiment: SPR
[2] = biological target: Fcε receptors expressed on the surface of U937 monocytic cells (human (endogenous in U937)); experiment: flow cytometry on cells

Sequence of UniProt P12319 (P12319 26-205): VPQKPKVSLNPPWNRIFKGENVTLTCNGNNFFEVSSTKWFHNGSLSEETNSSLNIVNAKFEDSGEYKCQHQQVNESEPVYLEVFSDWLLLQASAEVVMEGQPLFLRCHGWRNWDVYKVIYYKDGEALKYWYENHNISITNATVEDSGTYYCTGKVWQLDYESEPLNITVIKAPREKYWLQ

Substance	koff [1]	kon [1]	percent of cells bound [2]
chimaeric antibody NIP IgE	2.6e-05 s⁻¹	230000 M⁻¹ s⁻¹	
chimaeric MOv18 IgE antibody against the ovarian cancer antigen FBP			60.6%
